The text below walks through data of patent US20220289854A1.

This test concerns the target mouse CX3CR1 (mouse). The test is described as follows: flow cytometry titration on Jurkat cells transfected with mCX3CR1; goat anti-mIgG PE.

B1: 455.1C11 anti-mouse CX3CR1 monoclonal antibody (antibody, V domains shown)
VH: QVQLVETGGGLVRPGNSLKLSCVTSGFTFSNYRMHWLRQFPGKRLEWIAVIAFKSDKFGANYAESVKGRFAISRDDSKNSVYLEMSRLREEDTATYFCSRDGNGPFDYWGQGTTLTVSS
VL: DIVMSQSPSSLTVSVGEKVTMSCKSSQSLLYSGNQKSYLAWYQQKPGQSPRLLIYWASTRESGVPDRFTGSGSGTDFTLTISGVKAEDLAVYYCQRYYGYPRTFGGGTKLEIK
As usually defined, the EC50 is the midpoint of the concentration-response curve. In turn, B1 returned an EC50 of 0.102 µg/mL.
